Residue numbers refer to the chain shown, from its start. Names and notes keep the numbering of the source.
B1: IMGN779 (antibody, V domains shown)
VH: QVQLQQPGAEVVKPGASVKMSCKASGYTFTSYYIHWIKQTPGQGLEWVGVIYPGNDDISYNQKFQGKATLTADKSSTTAYMQLSSLTSEDSAVYYCAREVRLRYFDVWGQGTTVTVSS
VL: EIVLTQSPGSLAVSPGERVTMSCKSSQSVFFSSSQKNYLAWYQQIPGQSPRLLIYWASTRESGVPDRFTGSGSGTDFTLTISSVQPEDLAIYYCHQYLSSRTFGQGTKLEIK
notes: Unconjugated IgG from Expi293 supernatant; entries called heavy/light chain are variable domains; also called MYT1212; IMGN779 starting ABPC
B2: Vadastuximab (antibody, V domains shown)
VH: QVQLVQSGAEVKKPGASVKVSCKASGYTFTNYDINWVRQAPGQGLEWIGWIYPGDGSTKYNEKFKAKATLTADTSTSTAYMELRSLRSDDTAVYYCASGYEDAMDYWGQGTTVTVSS
VL: DIQMTQSPSSLSASVGDRVTINCKASQDINSYLSWFQQKPGKAPKTLIYRANRLVDGVPSRFSGSGSGQDYTLTISSLQPEDFATYYCLQYDEFPLTFGGGTKVEIK
notes: IgG from Expi293 supernatant; entries called heavy/light chain are variable domains; also called MYT1334; vadastuximab starting ABPC
B3: MYT2633 (antibody, V domains shown)
VH: B1 VH
VL: B1 VL with A40H
notes: IgG; IMGN779 VL variant #17 (A40H)
B4: MYT1342 (antibody, V domains shown)
VH: B2 VH with D33H
VL: B2 VL
notes: IgG; vadastuximab VH variant #8 (D33H)
B5: MYT1362 (antibody, V domains shown)
VH: B2 VH with A97H
VL: B2 VL
notes: IgG; vadastuximab VH variant #28 (A97H)
B6: MYT1344 (antibody, V domains shown)
VH: B2 VH with N35H
VL: B2 VL
notes: IgG; vadastuximab VH variant #10 (N35H)
B7: MYT2678 (antibody, V domains shown)
VH: B2 VH
VL: B2 VL with L96H
notes: IgG; vadastuximab VL variant #26 (L96H)
B8: MYT1364 (antibody, V domains shown)
VH: B2 VH with G99H
VL: B2 VL
notes: IgG; vadastuximab VH variant #30 (G99H)
B9: MYT2663 (antibody, V domains shown)
VH: B2 VH
VL: B2 VL with S34H
notes: IgG; vadastuximab VL variant #11 (S34H)
B10: MYT2673 (antibody, V domains shown)
VH: B2 VH
VL: B2 VL with Y91H
notes: IgG; vadastuximab VL variant #21 (Y91H)
B11: MYT2661 (antibody, V domains shown)
VH: B2 VH
VL: B2 VL with Y32H
notes: IgG; vadastuximab VL variant #9 (Y32H)

Each binder was assayed against T1, CD33 (Sino Biological, Cat #12238-H08H) (UniProt P20138 18-259) (assay: BLI, IgG captured on anti-human Fc biosensor, CD33 at low pH or high pH).
T1 sequence (P20138 18-259 limits assumed): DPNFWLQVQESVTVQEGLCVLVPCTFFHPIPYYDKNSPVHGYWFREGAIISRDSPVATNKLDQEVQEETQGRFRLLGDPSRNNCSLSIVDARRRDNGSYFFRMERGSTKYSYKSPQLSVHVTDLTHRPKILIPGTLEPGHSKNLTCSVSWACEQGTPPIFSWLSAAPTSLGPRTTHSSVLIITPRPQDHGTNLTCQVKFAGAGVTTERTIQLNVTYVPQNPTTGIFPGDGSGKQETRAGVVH

binding result | Binder
binds | B1
binds | B2

What follows are binders tested against T1, CD33 (Sino Biological, Cat #12238-H08H) (assay: BLI, IgG captured on anti-human Fc sensor, pH 7.4 and pH 5.4).

binding result | Binder
no binding (tested: 50 nM CD33) | B3
no binding (tested: 50 nM CD33) | B4
no binding (tested: 50 nM CD33) | B5
no binding (tested: 50 nM CD33) | B6
no binding (tested: 50 nM CD33) | B7
no binding (tested: 50 nM CD33) | B8
no binding (tested: 50 nM CD33) | B9
no binding (tested: 50 nM CD33) | B10
no binding (tested: 50 nM CD33) | B11

From US20220324969A1 (MYTHIC THERAPEUTICS, published 2022)
